Tests used:
[1] = biological target: tissue factor (TF) antigen (UniProt P13726); assay: SPR (ProteOn), against wild-type D3H44 Fab
[2] = biological target: tissue factor (TF) antigen (UniProt P13726); assay: SPR (ProteOn), Fab captured by anti-penta-His, TF as analyte, 1:1 fit
[3] = biological target: tissue factor (TF) antigen (UniProt P13726); assay: SPR; log ratio against wild-type D3H44 Fab
[4] = biological target: tissue factor (TF) antigen (UniProt P13726); assay: SPR (ProteOn XPR36): Fab captured via His tag on anti-penta-His, TF as analyte, 1:1 fit
[5] = biological target: tissue factor (TF) antigen (UniProt P13726); assay: SPR KD against wild-type D3H44 Fab (reference KD 0.157 nM)
[6] = biological target: tissue factor (TF) antigen (UniProt P13726); assay: SPR (ProteOn), Fab captured on anti-penta-His, TF analyte, 1:1 fit

tissue factor (TF) antigen, sequence (P13726 33-251 limits assumed): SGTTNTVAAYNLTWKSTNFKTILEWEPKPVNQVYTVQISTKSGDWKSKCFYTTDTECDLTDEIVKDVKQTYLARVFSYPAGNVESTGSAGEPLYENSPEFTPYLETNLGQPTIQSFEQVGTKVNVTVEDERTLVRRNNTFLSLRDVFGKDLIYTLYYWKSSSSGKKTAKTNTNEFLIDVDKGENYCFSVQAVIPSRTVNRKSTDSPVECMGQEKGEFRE

D3H44 Fab heterodimer, H1L1 of LCCA set 9885 (H: S186R; L: Q124E_S176L_T180E)
Change in KD with respect to wild type (-(log(KD design) - log(KD wt))) [1]: -0.06 | Kd [2]: 180 pM

D3H44 Fab heterodimer, H1L1 of LCCA sets 9869, 9871, 9874, 9876 and 9879 (H: S186R; L: Q124E_Q160E_T180E)
Change in KD with respect to wild type (-(log(KD design) - log(KD wt))) [1]: 0.51 | Kd [2]: 50 pM

D3H44 Fab heterodimer, H S186K / L Q124E_Q160E_T180E (H1L1 of LCCA sets 9836 and 9841)
Change in KD with respect to wild type (-(log(KD design) - log(KD wt))) [3]: 0.09 | Kd [4]: 130 pM

D3H44 Fab heterodimer, H1L1 of LCCA sets 9881 and 9882 (H: S186R; L: Q124E_S131T_T178F_T180E)
Change in KD with respect to wild type (-(log(KD design) - log(KD wt))) [1]: 0.15 | Kd [2]: 110 pM

D3H44 Fab heterodimer, H1L1 of LCCA set 9588 (H: L143E_K145T; L: Q124R)
Change in KD with respect to wild type (-(log(KD design) - log(KD wt))) [1]: -0.25 | Kd [2]: 280 pM

D3H44 Fab heterodimer, H1L1 of LCCA set 9887 (H: S186R; L: Q124E_T178E)
Change in KD with respect to wild type (-(log(KD design) - log(KD wt))) [1]: 0.06 | Kd [2]: 140 pM

D3H44 Fab heterodimer, H1L1 of LCCA set 9444 (H: L124R_Q179K; L: V133G_S176D_T180E)
Change in KD with respect to wild type (-(log(KD design) - log(KD wt))) [1]: -0.26 | Kd [2]: 280 pM

D3H44 Fab heterodimer, H1L1 of LCCA set 9688 (H: L143E_K145T_Q179E_S188L; L: Q124R_T178R)
Change in KD with respect to wild type (-(log(KD design) - log(KD wt))) [1]: -0.34 | Kd [2]: 340 pM

D3H44 Fab heterodimer, H L143E_K145T_Q179E / L Q124R_Q160K_T178R (H1L1 of LCCA set 9654)
Change in KD with respect to wild type (-(log(KD design) - log(KD wt))) [3]: 0.02 | Kd [4]: 150 pM

D3H44 Fab heterodimer, H1L1 of LCCA set 9863 (H: S186K; L: Q124E_T180E)
Change in KD with respect to wild type (-(log(KD design) - log(KD wt))) [1]: 0.46 | Kd [2]: 60 pM

D3H44 Fab heterodimer, H: S186R, L: Q124E_T178E (H1L1 Fab of LCCA set 9888)
Change in KD with respect to wild type (-(log(KD design) - log(KD wt))) [5]: 0.06 | Kd [6]: 140 pM

D3H44 Fab heterodimer, H1L1 of LCCA set 9983 (H: Q179K; L: S131E)
Change in KD with respect to wild type (-(log(KD design) - log(KD wt))) [1]: 0.05 | Kd [2]: 140 pM

D3H44 Fab heterodimer, H: Q179K, L: Q124E_T178E_T180E (H1L1 Fab of LCCA set 9786)
Change in KD with respect to wild type (-(log(KD design) - log(KD wt))) [5]: 0.1 | Kd [6]: 130 pM

D3H44 Fab heterodimer, H S186R / L Q124E_T180E (H1L1 of LCCA sets 9891, 9901, 9898 and 9893)
Change in KD with respect to wild type (-(log(KD design) - log(KD wt))) [3]: 0.36 | Kd [4]: 70 pM

D3H44 Fab heterodimer, H Q179K / L Q124E_Q160E_T180E (H1L1 of LCCA sets 9761, 9769 and 9767)
Change in KD with respect to wild type (-(log(KD design) - log(KD wt))) [3]: -0.31 | Kd [4]: 320 pM

D3H44 Fab heterodimer, H1L1 of LCCA set 9741 (H: L143R; L: Q124E_V133E_Q160F)
Change in KD with respect to wild type (-(log(KD design) - log(KD wt))) [1]: 0.34 | Kd [2]: 70 pM

D3H44 Fab heterodimer, H1L1 of LCCA set 9901 (H: S186R; L: Q124E_T180E)
Change in KD with respect to wild type (-(log(KD design) - log(KD wt))) [1]: 0.36 | Kd [2]: 70 pM

D3H44 Fab heterodimer, H: L143E_K145T_Q179D, L: Q124R_T178R (H1L1 Fab of LCCA set 9632)
Change in KD with respect to wild type (-(log(KD design) - log(KD wt))) [5]: 0.04 | Kd [6]: 140 pM

D3H44 Fab heterodimer, H: L124A_Q179K, L: Q124E_V133W_S176T_T178E_T180E (H1L1 Fab of LCCA set 9098)
Change in KD with respect to wild type (-(log(KD design) - log(KD wt))) [5]: -0.03 | Kd [6]: 170 pM

D3H44 Fab heterodimer, H1L1 of LCCA sets 9763 and 9773 (H: Q179K; L: Q124E_Q160E_T180E)
Change in KD with respect to wild type (-(log(KD design) - log(KD wt))) [1]: -0.31 | Kd [2]: 320 pM

D3H44 Fab heterodimer, H: Q179K, L: Q124E_Q160E_T178E (H1L1 Fab of LCCA set 9758)
Change in KD with respect to wild type (-(log(KD design) - log(KD wt))) [5]: -0.27 | Kd [6]: 290 pM

D3H44 Fab heterodimer, H1L1 of LCCA sets 9708, 9712 and 9716 (H: L143E_K145T_S188L; L: Q124R_Q160K_T178R)
Change in KD with respect to wild type (-(log(KD design) - log(KD wt))) [1]: -0.19 | Kd [2]: 240 pM

D3H44 Fab heterodimer, H L143E_K145T_Q179E_S188L / L Q124R_T178R (H1L1 of LCCA sets 9696 and 9692)
Change in KD with respect to wild type (-(log(KD design) - log(KD wt))) [3]: -0.34 | Kd [4]: 340 pM

D3H44 Fab heterodimer, H: Q179R, L: Q124E_Q160E_T178E (H1L1 Fab of LCCA set 9802)
Change in KD with respect to wild type (-(log(KD design) - log(KD wt))) [5]: 0.16 | Kd [6]: 110 pM

D3H44 Fab heterodimer, H: S186K, L: Q124E_T178E (H1L1 Fab of LCCA set 9850)
Change in KD with respect to wild type (-(log(KD design) - log(KD wt))) [5]: 0.01 | Kd [6]: 150 pM

D3H44 Fab heterodimer, H: S186K, L: Q124E_T178E_T180E (H1L1 Fab of LCCA set 9852)
Change in KD with respect to wild type (-(log(KD design) - log(KD wt))) [5]: 0.02 | Kd [6]: 150 pM

D3H44 Fab heterodimer, H: Q179K, L: Q124E_Q160E_T180E (H1L1 Fab of LCCA set 9759)
Change in KD with respect to wild type (-(log(KD design) - log(KD wt))) [5]: -0.31 | Kd [6]: 320 pM

D3H44 Fab heterodimer, H: L143R, L: Q124E_V133E (H1L1 Fab of LCCA set 9740)
Change in KD with respect to wild type (-(log(KD design) - log(KD wt))) [5]: -0.09 | Kd [6]: 200 pM

D3H44 Fab heterodimer, H: L143K, L: Q124E_V133D (H1L1 Fab of LCCA set 9731)
Change in KD with respect to wild type (-(log(KD design) - log(KD wt))) [5]: -0.26 | Kd [6]: 280 pM

D3H44 Fab heterodimer, H1L1 of LCCA set 9843 (H: S186K; L: Q124E_S131T_T178F_T180E)
Change in KD with respect to wild type (-(log(KD design) - log(KD wt))) [1]: -0.03 | Kd [2]: 170 pM

D3H44 Fab heterodimer, H: L124A_Q179K, L: Q124E_V133W_S176T_T178L_T180E (H1L1 Fab of LCCA set 9099)
Change in KD with respect to wild type (-(log(KD design) - log(KD wt))) [5]: -0.09 | Kd [6]: 190 pM

D3H44 Fab heterodimer, H: L143E_K145T_Q179E, L: Q124R_T178K (H1L1 Fab of LCCA set 9660)
Change in KD with respect to wild type (-(log(KD design) - log(KD wt))) [5]: -0.08 | Kd [6]: 190 pM

D3H44 Fab heterodimer, H1L1 of LCCA set 9684 (H: L143E_K145T_Q179E; L: T178R)
Change in KD with respect to wild type (-(log(KD design) - log(KD wt))) [1]: -0.28 | Kd [2]: 300 pM

D3H44 Fab heterodimer, H: Q179K, L: Q124E_T178E (H1L1 Fab of LCCA set 9784)
Change in KD with respect to wild type (-(log(KD design) - log(KD wt))) [5]: 0.05 | Kd [6]: 140 pM

D3H44 Fab heterodimer, H: L124W_L143F_K145T_Q179E, L: S131K_V133A_S176T_T178L (H1L1 Fab of LCCA sets 9571 and 9572)
Change in KD with respect to wild type (-(log(KD design) - log(KD wt))) [5]: -0.21 | Kd [6]: 260 pM

D3H44 Fab heterodimer, H: S186R, L: Q124E_Q160E_T178E (H1L1 Fab of LCCA set 9868)
Change in KD with respect to wild type (-(log(KD design) - log(KD wt))) [5]: 0.06 | Kd [6]: 140 pM

D3H44 Fab heterodimer, H1L1 of LCCA set 9987 (H: L143E_K145T; L: Q124R_T178R)
Change in KD with respect to wild type (-(log(KD design) - log(KD wt))) [1]: 0.15 | Kd [2]: 110 pM

D3H44 Fab heterodimer, H: S186K, L: Q124E_Q160E_T180E (H1L1 Fab of LCCA set 9838)
Change in KD with respect to wild type (-(log(KD design) - log(KD wt))) [5]: 0.09 | Kd [6]: 130 pM

D3H44 Fab heterodimer, H1L1 of LCCA set 9620 (H: L143E_K145T_Q179D; L: Q124R_Q160K_T178R)
Change in KD with respect to wild type (-(log(KD design) - log(KD wt))) [1]: 0.39 | Kd [2]: 60 pM

D3H44 Fab heterodimer, H1L1 of LCCA set 9632 (H: L143E_K145T_Q179D; L: Q124R_T178R)
Change in KD with respect to wild type (-(log(KD design) - log(KD wt))) [1]: 0.04 | Kd [2]: 140 pM

D3H44 Fab heterodimer, H: Q179R, L: Q124E_T178E (H1L1 Fab of LCCA set 9810)
Change in KD with respect to wild type (-(log(KD design) - log(KD wt))) [5]: 0.04 | Kd [6]: 140 pM

D3H44 Fab heterodimer, H1L1 of LCCA set 9575 (H: L143D_K145T_Q179E; L: T178R)
Change in KD with respect to wild type (-(log(KD design) - log(KD wt))) [1]: -0.25 | Kd [2]: 280 pM

D3H44 Fab heterodimer, H1L1 of LCCA set 9638 (H: L143E_K145T_Q179D; L: T178R)
Change in KD with respect to wild type (-(log(KD design) - log(KD wt))) [1]: 0.17 | Kd [2]: 110 pM

D3H44 Fab heterodimer, H1L1 of LCCA set 9803 (H: Q179R; L: Q124E_S131T_T178F_T180E)
Change in KD with respect to wild type (-(log(KD design) - log(KD wt))) [1]: 0.14 | Kd [2]: 110 pM

D3H44 Fab heterodimer, H: S186K, L: Q124E_Q160E_T178E (H1L1 Fab of LCCA set 9830)
Change in KD with respect to wild type (-(log(KD design) - log(KD wt))) [5]: 0.41 | Kd [6]: 60 pM

D3H44 Fab heterodimer, H: L124A_L143F_Q179K, L: Q124E_V133W_S176T_T178L_T180E (H1L1 Fab of LCCA set 9096)
Change in KD with respect to wild type (-(log(KD design) - log(KD wt))) [5]: -0.04 | Kd [6]: 170 pM

D3H44 Fab heterodimer, H1L1 of LCCA sets 9831, 9833 and 9841 (H: S186K; L: Q124E_Q160E_T180E)
Change in KD with respect to wild type (-(log(KD design) - log(KD wt))) [1]: 0.09 | Kd [2]: 130 pM

D3H44 Fab heterodimer, H1L1 of LCCA set 9867 (H: S186R; L: Q124E_Q160E_T178E)
Change in KD with respect to wild type (-(log(KD design) - log(KD wt))) [1]: 0.06 | Kd [2]: 140 pM

— patent US11306156
